# According to patent publication US20220119492A1 (MEDIKINE, published 2022):
# Bridge positions count the residues as written; N and C are the ends. Ends that are not written are not given here.
# T1: human IL-2Rβ (CD122 protein, Fc Tag) (27-239) (human, UniProt P14784 27-239)
# T1 construct: range 27-239; Bought protein; also called hu-IL-2Rβ subunit; IL-2Rβ subunit; not shown: Fc tag of the bought protein
# T1 sequence (looked up): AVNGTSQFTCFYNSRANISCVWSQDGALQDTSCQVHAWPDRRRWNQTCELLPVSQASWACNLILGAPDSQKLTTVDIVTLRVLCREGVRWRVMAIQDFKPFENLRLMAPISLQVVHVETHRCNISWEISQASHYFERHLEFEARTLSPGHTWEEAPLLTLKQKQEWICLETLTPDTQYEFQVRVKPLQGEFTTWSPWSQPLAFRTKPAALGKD
# B1: SEQ ID NO 2580 (peptide)
# peptide: VRAWYPCWIARLGELCDLEVD
# modifications: disulfide 7-16 (inferred)
# B2: SEQ ID NO 2581 (peptide)
# peptide: WFPCWMAQLGEVCDLD
# B3: SEQ ID NO 2582 (peptide)
# peptide: WYPCHMAKLRELCDLD
# B4: SEQ ID NO 2583 (peptide)
# peptide: SLPCWMAQLGDLCELH
# modifications: disulfide 4-13 (inferred)
# B5: SEQ ID NO 2584 (peptide)
# peptide: SNPCWMAQLWELCDLE
# B6: SEQ ID NO 2585 (peptide)
# peptide: YKPCWIAQLGELCELE
# B7: SEQ ID NO 2586 (peptide)
# peptide: WQPCWMAQLGELCDLE
# B8: SEQ ID NO 2587 (peptide)
# peptide: WKPCWLAQLGDLCEME
# B9: SEQ ID NO 2588 (peptide)
# peptide: WLPCWMAKLGDLCELE
# B10: SEQ ID NO 2589 (peptide)
# peptide: WLPCWMAQLGELCVME
# B11: SEQ ID NO 2590 (peptide)
# peptide: LHPCWMAQLGELCDLE
# B12: SEQ ID NO 2591 (peptide)
# peptide: SLPCWMAQLGELCDLV
# B13: SEQ ID NO 2592 (peptide)
# peptide: WKPCWMAGLGELCELD
# B14: SEQ ID NO 2593 (peptide)
# peptide: WWPCSSAELGEICDFD
# B15: SEQ ID NO 2594 (peptide)
# peptide: WQPCWRAKLGELCDLE
# modifications: disulfide 4-13 (inferred)
# B16: SEQ ID NO 2595 (peptide)
# peptide: WSPCWIATLGELCDLD
# B17: SEQ ID NO 2596 (peptide)
# peptide: WNPCWIAQLGDLCDMV
# B18: SEQ ID NO 2597 (peptide)
# peptide: WLPCWLAHLGDICDLQ
# B19: SEQ ID NO 2598 (peptide)
# peptide: WLSPPSYLPCWMAQLGELCDLV
# B20: SEQ ID NO 2599 (peptide)
# peptide: WDVHAIRNPCWLAKLGDLCDLD
# B21: SEQ ID NO 2600 (peptide)
# peptide: GAGVLHRWPCWMAKLGDLCDLD
# B22: SEQ ID NO 2601 (peptide)
# peptide: DTGRDGWKPCWMALLGELCELE
# modifications: disulfide 10-19 (inferred)
# B23: SEQ ID NO 2602 (peptide)
# peptide: EQGMLGYFPCWKALLGDVCDLD
# B24: SEQ ID NO 2603 (peptide)
# peptide: WRVTASLQPCWMAQLGELCDLN
# B25: SEQ ID NO 2604 (peptide)
# peptide: GQVVETSLPCWEAQLGELCVLD
# B26: SEQ ID NO 2605 (peptide)
# peptide: TVGQFEWYPCSTAQLGELCDLD
# B27: SEQ ID NO 2606 (peptide)
# peptide: ALVGGTFYPCYVAHLGELCDIE
# Target: T1, human IL-2Rβ (CD122 protein, Fc Tag) …
# Assay: phage ELISA competition
# Outline: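 Values are IC50s derived from absorbance in a competitive binding ELISA, where a phage tracer competes with test ligands for human IL-2Rβ-Fc across a ligand dilution series. After 50 μL of phage tracer was added without washing for 45 min at 4° C, bound phage was detected with TMB for 1 to 15 min at 25° C. The reaction was then stopped and absorbance read at 450 nm.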
row,Binder,IC50
1,B1,< 100 µM
2,B2,< 100 µM
3,B3,< 100 µM
4,B4,< 100 µM
5,B5,< 100 µM
6,B6,< 100 µM
7,B7,< 100 µM
8,B8,< 100 µM
9,B9,< 100 µM
10,B10,< 100 µM
11,B11,< 100 µM
12,B12,< 100 µM
13,B13,< 100 µM
14,B14,< 100 µM
15,B15,< 100 µM
16,B16,< 100 µM
17,B17,< 100 µM
18,B18,< 100 µM
19,B19,< 100 µM
20,B20,< 100 µM
21,B21,< 100 µM
22,B22,< 100 µM
23,B23,< 100 µM
24,B24,< 100 µM
25,B25,< 100 µM
26,B26,< 100 µM
27,B27,< 100 µM
